From publication PMC3630103

B1: CHK-263 (mouse monoclonal antibody) (antibody, V domains shown)
VH: QVQLQQSGAELVKPGASVKISCKASGYAFSSYWMNWVKQRPGKGLEWIGQIYPGDGDTNYNGKFKGKATLTADKSSSTAYMQLSSLTSEDSAVYFCARGGLTIDYWGQGTTLTVSS
VL: DIVLTQSPATLSVTPGDSVSLSCRASQSISDNLHWYQQKSHESPGLLIKYASQSISGIPSRFSGSGSGTDFTLSINSVETEDFGMYFCQQSNSWPYTFGGGTKLEIK
B2: CHK-102 (mouse monoclonal antibody) (antibody, V domains shown)
VH: QVQLQQSGAELVKPGASVKISCKTSGYAFSSFWMHWVKQRPGKGLEWIGQIYPGDGDTNYNGKFKDKATLTADKSSNTAYMQLTSLTSEDSAVYFCARNLLFDYWGQGTTLTVSS
VL: EILMTQSPAILSVSPGERVSFSCRASQSIGSNIHWYQQRTNGSPRLLIKYASESISGIPSRFSGSGSGTDFTLSINSVESEDIADYYCQQNNIWPFTFGSGTKLEIK
B3: CHK-166 (mouse monoclonal antibody) (antibody, V domains shown)
VH: EVRLVESGGGLEQPGGSLKLSCAASGFTFSDYFMYWVRQTPEKRLEWVAYISNGGISTFYSDAVKGRFTISRDNARNTLYLQMSRLKSEDTAIYYCVRQVYGQGYFDYWGQGTTLAVSS
VL: QIVLIQSPAIMSASLGERVTMTCTASSSVSSSYLHWYQQKPGSSPKLWIYSSFSLASGVPARFSGSGSGTSYSLTISTMEAEDAATYYCHQYLRSPWTFGGGSKLEIK
B4: CHK-152 (mouse monoclonal antibody) (antibody, V domains shown)
VH: QVQLQQPGAALVKPGASAMMSCKASGYTFTSYWITWVKQRPGQGLEWIGDIYPGTGRTIYKEKFKTKATLTVDTSSSTAFMQLNSLTSEDSAVYYCARGYGSPYYALDYWGQGTSVTVSS
VL: DIVLTQSPASLAVSQGQRATISCKASQSVDYDGDSYVNWYQQKPGQSPKLLIYDASNLESGIPARFSGSGSGTDFTLNIHPVEEEDVATYYCQESNEDPRTFGGGTKLEIK

molecular target: CHIKV-RSU1 virus (Asian genotype), envelope glycoproteins E2-E1 (Chikungunya virus (strain RSU1))

B1 and B2 are within 1.5-fold of each other in EC50 of neutralisation of CHIKV-RSU1 (FRNT on Vero cells): 0.004 µg/mL for the first, 0.005 µg/mL for the second.

Going from B3 to B4, the EC50 of neutralisation of CHIKV-RSU1 (FRNT on Vero cells) falls from 0.04 µg/mL to 0.003 µg/mL (13-fold).

Compared with B1, B2 is 28-fold higher in EC90 of neutralisation of CHIKV-RSU1 (FRNT on Vero cells): 0.048 µg/mL for the first, 1.32 µg/mL for the second.

Compared with B3, B4 is 150-fold lower in EC90 of neutralisation of CHIKV-RSU1 (FRNT on Vero cells): 2.18 µg/mL for the first, 0.015 µg/mL for the second.

molecular target: CHIKV-IbH35 virus (West African genotype), envelope glycoproteins E2-E1 (Chikungunya virus (strain IbH35))

Going from B1 to B2, the EC50 of neutralisation of CHIKV-IbH35 (FRNT on Vero cells) rises from 0.002 µg/mL to 0.006 µg/mL (3-fold).

Compared with B3, B4 is 82-fold lower in EC50 of neutralisation of CHIKV-IbH35 (FRNT on Vero cells): 0.082 µg/mL for the first, 0.001 µg/mL for the second.

First: B1
Second: B2
The EC90 of neutralisation of CHIKV-IbH35 (FRNT on Vero cells) of the first is 2-fold lower: 0.051 µg/mL for the first, 0.104 µg/mL for the second.

First: B3
Second: B4
The EC90 of neutralisation of CHIKV-IbH35 (FRNT on Vero cells) of the first is 430-fold higher: 2.58 µg/mL for the first, 0.006 µg/mL for the second.
